Results published in paper PMC5511257, “Plasticity in the Oxidative Folding Pathway of the High Affinity Nerita Versicolor Carboxypeptidase Inhibitor (NvCI)” (Scientific Reports, 2017).
Bridges are numbered along the chain shown (N, C = ends). Where no end group is shown, it is not given here.

T1: Human carboxypeptidase B1 (hCPB1) (human, UniProt P15086 111-417)
T1 construct: also called human CPB1
T1 sequence (looked up): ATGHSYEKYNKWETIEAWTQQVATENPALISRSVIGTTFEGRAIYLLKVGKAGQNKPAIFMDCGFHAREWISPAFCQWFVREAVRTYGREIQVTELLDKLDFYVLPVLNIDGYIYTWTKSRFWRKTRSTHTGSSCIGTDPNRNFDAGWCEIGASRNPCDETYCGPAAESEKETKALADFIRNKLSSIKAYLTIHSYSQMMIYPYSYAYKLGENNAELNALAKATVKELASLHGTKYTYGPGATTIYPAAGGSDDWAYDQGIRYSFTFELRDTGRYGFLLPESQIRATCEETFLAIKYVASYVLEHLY

T2: Porcine carboxypeptidase B (pCPB1) (porcine, UniProt P09955 111-416)
T2 construct: Porcine carboxypeptidase B (CPB1), purchased active enzyme; also called porcine CPB1; source: bought: Sigma
T2 sequence (looked up): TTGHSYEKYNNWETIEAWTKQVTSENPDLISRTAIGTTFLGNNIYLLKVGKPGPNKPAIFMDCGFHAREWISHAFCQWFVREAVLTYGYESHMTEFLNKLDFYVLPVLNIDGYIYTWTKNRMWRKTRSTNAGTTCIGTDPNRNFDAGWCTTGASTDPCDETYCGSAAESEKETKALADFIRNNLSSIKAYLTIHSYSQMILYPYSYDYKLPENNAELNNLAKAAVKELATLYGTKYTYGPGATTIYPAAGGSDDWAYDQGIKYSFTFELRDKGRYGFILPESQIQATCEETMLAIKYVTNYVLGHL

T3: Human carboxypeptidase A1 (hCPA1) (human, UniProt P15085 111-419)
T3 construct: also called human CPA1
T3 sequence (looked up): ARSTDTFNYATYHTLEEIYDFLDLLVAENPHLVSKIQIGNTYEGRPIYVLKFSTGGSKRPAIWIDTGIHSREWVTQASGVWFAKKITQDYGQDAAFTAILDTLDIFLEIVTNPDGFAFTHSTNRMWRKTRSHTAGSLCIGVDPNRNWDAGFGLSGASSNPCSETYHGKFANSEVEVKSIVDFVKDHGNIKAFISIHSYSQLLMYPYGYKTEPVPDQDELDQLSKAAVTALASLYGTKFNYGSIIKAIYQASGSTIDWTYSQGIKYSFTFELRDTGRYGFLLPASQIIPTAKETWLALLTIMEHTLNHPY

T4: Bovine carboxypeptidase A (bCPA1) (bovine, UniProt P00730 111-419)
T4 construct: Bovine carboxypeptidase A (CPA1), purchased active enzyme; also called bovine CPA1; source: bought: Sigma
T4 sequence (looked up): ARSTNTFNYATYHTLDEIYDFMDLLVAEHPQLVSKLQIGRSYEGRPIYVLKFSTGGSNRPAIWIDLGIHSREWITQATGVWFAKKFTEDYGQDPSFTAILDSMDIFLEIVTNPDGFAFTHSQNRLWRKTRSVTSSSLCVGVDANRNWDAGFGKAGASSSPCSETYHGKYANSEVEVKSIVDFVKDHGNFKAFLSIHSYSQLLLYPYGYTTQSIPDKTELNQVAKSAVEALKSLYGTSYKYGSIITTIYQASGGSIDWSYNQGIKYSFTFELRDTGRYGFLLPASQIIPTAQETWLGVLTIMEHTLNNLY

B1: Nerita versicolor carboxypeptidase inhibitor (NvCI), native (natural protein, UniProt P86912 1-53, looked up)
chain: FHVPDDRPCINPGRCPLVPDATCTFVCKAADNDFGYECQHVWTFEGQRVGCYA
modifications: disulfide 15-51, 9-23, 27-38
notes: comprises 53 residues, C-terminal tail Cys51-Tyr52-Ala53; also called native NvCI; 3S-S native form; source: Pichia pastoris, secreted into the extracellular medium, purified (ion exchange, size exclusion); repurified by RP-HPLC
B2: des(15–51) NvCI folding/unfolding intermediate (natural protein, Nerita versicolor, UniProt P86912 1-53, looked up)
chain: B1 chain
modifications: disulfide 9-23, 27-38; cysteine pairing not given here
notes: differs only in the missing Cys15-Cys51 disulfide; also called intermediate IIb; fraction IIb

How the values were obtained:
Details in all cases: both partners purified
[1] = target: T1, Human carboxypeptidase B1 (hCPB1); experiment: enzyme inhibition kinetics (tight-binding inhibitor, Morrison equation); CPBs: inhibition of hydrolysis of N-(4-methoxyphenylazoformyl)-Arg-OH (0.1 mM) at 355 nm; 20 mM Tris-HCl pH 7.5, 1% v/v DMSO, 0.05% w/v Brij-35, 0.1 M NaCl; 37 °C; enzyme constant (6.0 nM hCPB1 and pCPB1), increasing amounts of inhibitor
[2] = target: T2, Porcine carboxypeptidase B (pCPB1); experiment: as above
[3] = target: T3, Human carboxypeptidase A1 (hCPA1); experiment: enzyme inhibition kinetics (tight-binding inhibitor, Morrison equation); CPAs: inhibition of hydrolysis of N-(4-methoxyphenylazoformyl)-Phe-OH (0.1 mM) at 355 nm; 20 mM Tris-HCl pH 7.5, 1% v/v DMSO, 0.05% w/v Brij-35, 0.5 M NaCl; 37 °C; enzyme constant (7.5 nM hCPA1, 6.0 nM bCPA1), increasing amounts of inhibitor
[4] = target: T4, Bovine carboxypeptidase A (bCPA1); experiment: as above

Binder	Ki [1] [nM]	Ki [2] [nM]	Ki [3] [nM]	Ki [4] [nM]
B1	0.62	0.53	0.00118	0.00491
B2	7.85	4.9	1	2.01
